Results on eight molecules are retold here after article PMC4380771 (Methods (San Diego, Calif.), 2014).

Several values for one entry are separate records, joined by “and”; a condition that tells them apart may be missing. Identical values can stand only once. Like-named read-outs stand apart in the source and are kept apart here.

One test has as its target T1, Tp0655 (Treponema pallidum, UniProt O83661).
T1 sequence (O83661 24-348): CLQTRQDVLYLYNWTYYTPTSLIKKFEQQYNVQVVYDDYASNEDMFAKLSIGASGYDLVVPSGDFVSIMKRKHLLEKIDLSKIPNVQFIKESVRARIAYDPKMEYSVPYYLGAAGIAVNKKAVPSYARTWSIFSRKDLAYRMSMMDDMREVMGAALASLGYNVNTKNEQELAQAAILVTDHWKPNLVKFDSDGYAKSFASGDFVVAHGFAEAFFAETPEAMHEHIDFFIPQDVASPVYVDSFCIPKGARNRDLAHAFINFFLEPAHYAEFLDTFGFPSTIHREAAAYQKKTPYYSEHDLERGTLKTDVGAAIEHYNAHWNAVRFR
The test is described as follows: isothermal titration calorimetry. It counts as binding. For orientation: ITC needs no label: the signal is the heat of the interaction.

The target in a further test is SynIIIC (Rattus norvegicus, UniProt O70441). Kind of test: isothermal titration calorimetry. It counts as binding.
A further test addresses hLF (UniProt P02788). The test is described as follows: ITC.
The target in another test is HIF2α (Homo sapiens, UniProt Q99814). Kind of test: isothermal titration calorimetry. It counts as binding.
Test [1] addresses bovine α-chymotrypsin (bovine). Kind of test: ITC.
Test [2] deals with bovine α-chymotrypsin (bovine). Kind of test: ITC. This is another data set of the same source.
Test [3] concerns the target bovine α-chymotrypsin (bovine). The test is described as follows: ITC. This is another data set of the same source.

Sequence of hLF (P02788 20-710): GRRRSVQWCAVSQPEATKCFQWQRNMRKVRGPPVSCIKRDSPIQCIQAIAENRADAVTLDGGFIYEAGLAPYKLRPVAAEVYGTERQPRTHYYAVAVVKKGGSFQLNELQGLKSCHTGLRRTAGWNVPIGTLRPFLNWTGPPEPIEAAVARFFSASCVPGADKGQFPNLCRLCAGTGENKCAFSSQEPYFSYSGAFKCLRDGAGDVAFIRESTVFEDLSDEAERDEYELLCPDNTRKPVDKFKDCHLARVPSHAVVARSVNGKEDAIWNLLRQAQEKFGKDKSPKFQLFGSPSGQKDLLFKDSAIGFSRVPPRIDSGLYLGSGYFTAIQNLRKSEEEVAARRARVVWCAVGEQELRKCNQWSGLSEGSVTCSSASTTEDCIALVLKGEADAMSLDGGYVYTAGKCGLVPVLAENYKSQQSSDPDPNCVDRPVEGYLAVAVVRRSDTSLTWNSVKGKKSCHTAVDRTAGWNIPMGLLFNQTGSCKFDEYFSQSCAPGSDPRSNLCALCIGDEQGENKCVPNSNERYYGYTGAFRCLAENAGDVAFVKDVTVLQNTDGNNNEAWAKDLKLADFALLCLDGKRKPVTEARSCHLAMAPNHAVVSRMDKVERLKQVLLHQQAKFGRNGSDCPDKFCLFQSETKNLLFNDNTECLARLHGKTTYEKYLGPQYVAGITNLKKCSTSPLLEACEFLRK
Sequence of SynIIIC (O70441 89-403): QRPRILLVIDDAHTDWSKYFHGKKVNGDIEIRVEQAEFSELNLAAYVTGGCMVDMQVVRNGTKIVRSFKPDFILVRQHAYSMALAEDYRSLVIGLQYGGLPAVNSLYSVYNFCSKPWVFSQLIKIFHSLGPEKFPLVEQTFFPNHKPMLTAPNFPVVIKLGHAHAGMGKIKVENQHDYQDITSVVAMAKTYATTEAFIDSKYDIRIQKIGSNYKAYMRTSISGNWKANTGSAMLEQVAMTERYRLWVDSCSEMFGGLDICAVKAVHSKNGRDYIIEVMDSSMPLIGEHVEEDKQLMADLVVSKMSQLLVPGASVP
Sequence of HIF2α (Q99814 239-350): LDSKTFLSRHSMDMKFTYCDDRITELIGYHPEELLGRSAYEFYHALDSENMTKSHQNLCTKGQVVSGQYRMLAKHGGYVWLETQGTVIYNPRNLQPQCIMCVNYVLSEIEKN

One may read the Kd as the concentration at which binding is half-saturated. `NCCCCN` [Putrescine] yielded an equilibrium dissociation constant (Kd) at Tp0655 of 0.117 µM. Take `Nc1ncnc2c1ncn2[C@@H]1O[C@H](COP(=O)(O)OP(=O)(O)OP(=O)(O)O)[C@@H](O)[C@H]1O` [ATP]: the affinity at SynIIIC, expressed as Kd, was 0.136 µM. The molecule “Tp34 (files named H70ATp34hLF...) (from UniProt P19478 20-204) (natural protein)” showed a dH with hLF of 4.9 kcal/mol. Consider `NCCCN` [DAP], for which, on Tp0655, binding was put at a Kd of 36.2 µM.

`NCCCCNCCCN` [Spermidine]: the Kd on Tp0655 was determined as 2.37 µM. In turn, `O=[N+]([O-])c1c(Nc2cc(F)cc(Cl)c2)ccc2nonc12` [HBA, N-(3-Chloro-5-fluorophenyl)-4-nitrobenzo[c][1,2, 5]oxadiazol-5-amine] yielded a Kd on HIF2α of 0.105 µM.

Turning to “Soybean trypsin inhibitor (from UniProt P01070 25-205) (natural protein)”, in test [1], the dH was 10.3 kcal/mol and 10.9 kcal/mol and 9.7 kcal/mol; the logKa is 7.27. Besides, in test [2], the dH is 10.5 kcal/mol (2×) and 10.4 kcal/mol; the log(Ka) is 6.89 and 6.98 and 7. For the same molecule, in test [3], the dH is 10.5 kcal/mol (2×) and 10.3 kcal/mol; the logKa is 6.99 and 7 and 6.9. Consider “Tp34 (from UniProt P19478 20-204) (natural protein)”, for which, in the test with hLF, the Kd is 11.3 µM and 11 µM and 22.3 µM; the log(Ka) was 4.95; the logKa was 4.96 and 4.65.
